Values of other authors in PMC4319847.
pKd: −log10 of the molar value.

Columns and labels:
[1] = target: SV40 NLS NLS (Simian virus 40) (UniProt P03070)
[2] = target: Myc NLS NLS (Homo sapiens) (UniProt P01106)
Sequence of Myc NLS NLS (Homo sapiens) (P01106 whole entry, looked up): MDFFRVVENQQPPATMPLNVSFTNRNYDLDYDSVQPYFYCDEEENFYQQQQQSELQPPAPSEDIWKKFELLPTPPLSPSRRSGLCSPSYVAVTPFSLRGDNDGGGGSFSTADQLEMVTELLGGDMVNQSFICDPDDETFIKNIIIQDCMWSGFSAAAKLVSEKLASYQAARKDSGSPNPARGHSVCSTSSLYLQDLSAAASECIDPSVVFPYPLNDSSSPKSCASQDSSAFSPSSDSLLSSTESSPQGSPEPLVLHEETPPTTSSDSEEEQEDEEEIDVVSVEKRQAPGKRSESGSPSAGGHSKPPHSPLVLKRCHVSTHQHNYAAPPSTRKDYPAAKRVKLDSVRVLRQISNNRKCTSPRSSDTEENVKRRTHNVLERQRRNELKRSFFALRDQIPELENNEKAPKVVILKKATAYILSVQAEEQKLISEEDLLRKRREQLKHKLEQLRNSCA

Sequence of yeast importin-α 89-530 (Q02821 89-530): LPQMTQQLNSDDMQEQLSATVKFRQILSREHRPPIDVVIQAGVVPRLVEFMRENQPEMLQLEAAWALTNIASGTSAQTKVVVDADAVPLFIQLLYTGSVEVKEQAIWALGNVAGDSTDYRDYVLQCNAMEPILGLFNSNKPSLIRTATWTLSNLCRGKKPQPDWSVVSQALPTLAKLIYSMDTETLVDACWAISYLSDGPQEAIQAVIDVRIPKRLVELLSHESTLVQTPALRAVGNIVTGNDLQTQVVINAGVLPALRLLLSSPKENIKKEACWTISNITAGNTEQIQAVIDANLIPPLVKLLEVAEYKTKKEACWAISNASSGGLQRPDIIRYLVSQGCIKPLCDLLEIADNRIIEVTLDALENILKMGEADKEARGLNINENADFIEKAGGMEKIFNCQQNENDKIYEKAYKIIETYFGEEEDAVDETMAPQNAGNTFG
Sequence of SV40 NLS NLS (Simian virus 40) (P03070 whole entry, looked up): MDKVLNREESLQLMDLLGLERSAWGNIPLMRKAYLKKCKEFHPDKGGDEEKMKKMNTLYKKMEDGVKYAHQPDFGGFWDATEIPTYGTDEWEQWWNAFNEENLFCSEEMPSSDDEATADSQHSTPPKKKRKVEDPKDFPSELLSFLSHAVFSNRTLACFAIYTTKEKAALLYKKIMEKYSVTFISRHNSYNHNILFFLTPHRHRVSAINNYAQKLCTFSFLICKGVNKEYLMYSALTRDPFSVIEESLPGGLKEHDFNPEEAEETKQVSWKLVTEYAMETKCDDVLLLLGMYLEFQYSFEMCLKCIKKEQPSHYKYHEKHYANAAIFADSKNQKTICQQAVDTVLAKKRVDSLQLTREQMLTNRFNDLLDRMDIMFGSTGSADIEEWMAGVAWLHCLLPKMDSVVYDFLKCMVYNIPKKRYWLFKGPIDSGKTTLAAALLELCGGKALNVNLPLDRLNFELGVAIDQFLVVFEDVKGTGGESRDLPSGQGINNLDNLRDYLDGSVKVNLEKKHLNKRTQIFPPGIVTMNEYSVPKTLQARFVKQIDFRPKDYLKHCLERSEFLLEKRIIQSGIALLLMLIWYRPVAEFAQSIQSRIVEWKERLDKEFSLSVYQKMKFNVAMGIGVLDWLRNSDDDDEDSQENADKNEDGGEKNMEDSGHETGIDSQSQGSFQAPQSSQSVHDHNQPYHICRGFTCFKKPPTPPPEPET

For “yeast importin-α 89-530 (from UniProt Q02821)”, the pKd [1] is given as 8.05 and the pKd [2] is given as 8.22.
